# From the Immune Epitope Database (IEDB)
# What was measured:
# [1] = molecular target: HLA-B*07:02; assay: IEDB peptide-MHC binding, purified MHC/competitive/fluorescence; ≥ and ≤ were set here for values at or beyond the usual limits of such assays; conditions: source organism: Zaire ebolavirus
# [2] = molecular target: HLA-A*02:01; assay: as above
# [3] = molecular target: HLA-A*24:02; assay: as above
# [4] = molecular target: HLA-B*15:01; assay: as above
# [5] = molecular target: HLA-B*08:01; assay: as above
# [6] = molecular target: HLA-A*29:02; assay: IEDB peptide-MHC binding, purified MHC/direct/fluorescence; filed as Kd, often an IC50 or EC50 that approximates it; ≥ and ≤ were set here for values at or beyond the usual limits of such assays
# [7] = molecular target: HLA-A*68:02; assay: as above
# [8] = molecular target: HLA-B*58:01; assay: as above
# [9] = molecular target: HLA-A*03:01; assay: as above
# [10] = molecular target: HLA-B*15:01; assay: as above
# [11] = molecular target: HLA-B*27:05; assay: as above
# [12] = molecular target: HLA-A*02:19; assay: as above; conditions: source organism: Zaire ebolavirus
# [13] = molecular target: HLA-A*26:01; assay: IEDB peptide-MHC binding, purified MHC/competitive/fluorescence; filed as Kd, often an IC50 or EC50 that approximates it; ≥ and ≤ were set here for values at or beyond the usual limits of such assays
# [14] = molecular target: HLA-A*69:01; assay: as above; conditions: source organism: Zaire ebolavirus
# [15] = molecular target: HLA-B*57:01; assay: as above; conditions: source organism: Zaire ebolavirus
# [16] = molecular target: HLA-B*51:01; assay: as above
# [17] = molecular target: HLA-B*27:03; assay: as above
# [18] = molecular target: HLA-B*40:01; assay: IEDB peptide-MHC binding, purified MHC/direct/fluorescence; filed as Kd, often an IC50 or EC50 that approximates it; ≥ and ≤ were set here for values at or beyond the usual limits of such assays; conditions: source organism: Reston ebolavirus - Reston
# [19] = molecular target: HLA-B*48:01; assay: as above; conditions: source organism: Reston ebolavirus - Reston
# [20] = molecular target: HLA-A*02:11; assay: as above
# [21] = molecular target: HLA-A*23:01; assay: as above
# [22] = molecular target: HLA-A*31:01; assay: as above; conditions: source organism: Reston ebolavirus - Reston
# [23] = molecular target: HLA-B*39:01; assay: as above; conditions: source organism: Reston ebolavirus - Reston
# [24] = molecular target: HLA-B*07:02; assay: as above; conditions: source organism: Reston ebolavirus - Reston
# [25] = molecular target: HLA-A*02:01; assay: as above; conditions: source organism: Reston ebolavirus - Reston
# [26] = molecular target: HLA-A*02:12; assay: as above
# [27] = molecular target: HLA-A*01:01; assay: as above
# [28] = molecular target: HLA-B*46:01; assay: as above; conditions: source organism: Reston ebolavirus - Reston
# [29] = molecular target: HLA-B*18:01; assay: as above; conditions: source organism: Reston ebolavirus - Reston
# [30] = molecular target: HLA-B*44:02; assay: as above; conditions: source organism: Reston ebolavirus - Reston
# [31] = molecular target: HLA-A*69:01; assay: as above; conditions: source organism: Reston ebolavirus - Reston
# [32] = molecular target: HLA-A*24:03; assay: as above
# [33] = molecular target: HLA-B*57:01; assay: as above; conditions: source organism: Reston ebolavirus - Reston
# [34] = molecular target: HLA-A*11:01; assay: IEDB peptide-MHC binding, purified MHC/competitive/fluorescence; ≥ and ≤ were set here for values at or beyond the usual limits of such assays
# [35] = molecular target: HLA-A*03:01; assay: as above
# [36] = molecular target: HLA-B*51:01; assay: IEDB peptide-MHC binding, purified MHC/direct/fluorescence; filed as Kd, often an IC50 or EC50 that approximates it; ≥ and ≤ were set here for values at or beyond the usual limits of such assays
# [37] = molecular target: HLA-B*35:01; assay: IEDB peptide-MHC binding, purified MHC/competitive/radioactivity; filed as Kd, often an IC50 or EC50 that approximates it; ≥ and ≤ were set here for values at or beyond the usual limits of such assays; conditions: source organism: Dengue virus 4 Philippines/H241/1956
# [38] = molecular target: HLA-B*53:01; assay: as above; conditions: source organism: Dengue virus 4 Philippines/H241/1956
# [39] = molecular target: HLA-A*01:01; assay: IEDB peptide-MHC binding, purified MHC/competitive/fluorescence; ≥ and ≤ were set here for values at or beyond the usual limits of such assays
# [40] = molecular target: HLA-A*02:16; assay: IEDB peptide-MHC binding, purified MHC/direct/fluorescence; filed as Kd, often an IC50 or EC50 that approximates it; ≥ and ≤ were set here for values at or beyond the usual limits of such assays; conditions: source organism: Zaire ebolavirus
# [41] = molecular target: HLA-A*02:03; assay: as above; conditions: source organism: Zaire ebolavirus
# [42] = molecular target: HLA-B*39:01; assay: IEDB peptide-MHC binding, purified MHC/competitive/fluorescence; filed as Kd, often an IC50 or EC50 that approximates it; ≥ and ≤ were set here for values at or beyond the usual limits of such assays; conditions: source organism: Zaire ebolavirus
# [43] = molecular target: HLA-A*02:01; assay: as above; conditions: source organism: Zaire ebolavirus
# [44] = molecular target: HLA-B*46:01; assay: as above; conditions: source organism: Zaire ebolavirus
# [45] = source organism: Zaire ebolavirus
# [46] = source organism: Vaccinia virus
# [47] = source organism: Reston ebolavirus - Reston
# [48] = source organism: Reston ebolavirus
# [49] = source organism: Sudan ebolavirus
sequence,measurement,setting,value
FQRTFSIPL,IC50,[1],3.92 µM
same,IC50,[2]; [45],3.55 µM
same,IC50,[3]; [45],47 µM
same,IC50,[4]; [45],2.2 µM
same,IC50,[5]; [45],5.48 µM
GCLRIQSLM,IC50,[2]; [46],9.58 µM
same,IC50,[4]; [46],≥ 591 µM
same,IC50,[5]; [46],≥ 697 µM
GQFLSFASL,IC50,[2]; [45],3.42 µM
same,IC50,[3]; [45],19.5 µM
same,IC50,[4]; [45],1.27 µM
same,Kd,[6]; [45],≥ 20 µM
same,Kd,[7]; [45],≥ 20 µM
same,Kd,[8]; [45],≥ 20 µM
same,Kd,[9]; [45],≥ 20 µM
same,Kd,[10]; [45],0.032 µM
same,Kd,[11]; [45],0.151 µM
same,Kd,[12],≥ 20 µM
same,Kd,[13]; [45],≥ 20 µM
same,Kd,[14],≥ 20 µM
same,Kd,[15],≥ 20 µM
same,Kd,[16]; [45],≥ 20 µM
same,Kd,[17]; [45],≥ 20 µM
HKNKFMAIL,IC50,[2]; [45],≥ 782 µM
same,IC50,[3]; [45],50.9 µM
same,IC50,[4]; [45],≥ 443 µM
same,IC50,[5]; [45],42.7 µM
KHDFIDNPL,Kd,[18],≥ 20 µM
same,Kd,[6]; [47],≥ 20 µM
same,Kd,[19],≥ 20 µM
same,Kd,[20]; [48],≥ 20 µM
same,Kd,[7]; [48],≥ 20 µM
same,Kd,[21]; [48],≥ 20 µM
same,Kd,[8]; [47],≥ 20 µM
same,Kd,[22],≥ 20 µM
same,Kd,[23],4.89 µM
same,Kd,[24],≥ 20 µM
same,Kd,[25],≥ 20 µM
same,Kd,[26]; [48],≥ 20 µM
same,Kd,[9]; [47],≥ 20 µM
same,Kd,[27]; [47],≥ 20 µM
same,Kd,[28],≥ 20 µM
same,Kd,[29],≥ 20 µM
same,Kd,[30],≥ 20 µM
same,Kd,[31],≥ 20 µM
same,Kd,[32]; [48],≥ 20 µM
same,Kd,[10]; [47],≥ 20 µM
same,Kd,[11]; [47],≥ 20 µM
same,Kd,[33],≥ 20 µM
same,Kd,[13]; [48],≥ 20 µM
same,Kd,[16]; [48],≥ 20 µM
same,Kd,[17]; [48],≥ 20 µM
KLLLWFNYL,IC50,[34]; source organism: Variola virus,≥ 140 µM
same,IC50,[35]; source organism: Variola virus,≥ 699 µM
KPVPNRSTK,IC50,[34]; [45],≥ 115 µM
same,IC50,[1],30.9 µM
same,IC50,[35]; [45],≥ 166 µM
KQKFPYEGG,IC50,[4]; [46],≥ 233 µM
LFLESGAVK,IC50,[34]; [45],68.8 µM
same,IC50,[35]; [45],≥ 192 µM
same,IC50,[3]; [45],15.2 µM
LIIDEVHEH,IC50,[34]; source organism: Variola virus,69.2 µM
same,IC50,[2]; source organism: Variola virus,≥ 99.4 µM
same,IC50,[4]; source organism: Variola virus,≥ 128 µM
QQYAESREL,IC50,[1],≥ 134 µM
same,IC50,[2]; [45],58.2 µM
same,IC50,[3]; [45],≥ 72.4 µM
same,IC50,[4]; [45],15.7 µM
QVEQHHRRT,IC50,[34]; [45],0.543 µM
same,IC50,[2]; [45],≥ 252 µM
same,IC50,[35]; [45],3.08 µM
SMRDQRKGR,IC50,[35]; source organism: Variola virus,6.32 µM
SPSKLASAI,Kd,[36]; source organism: Dengue virus,≥ 20 µM
STHNTPVYK,IC50,[34]; [45],0.44 µM
same,IC50,[2]; [45],≥ 323 µM
same,IC50,[35]; [45],5.02 µM
same,IC50,[3]; [45],≥ 134 µM
THKLSLTKL,IC50,[34]; source organism: Variola virus,46.2 µM
same,IC50,[35]; source organism: Variola virus,≥ 149 µM
TPFGQQRVF,Kd,[36]; source organism: Dengue virus 1 Singapore/S275/1990,≥ 20 µM
same,Kd,[37],0.0474 µM
same,Kd,[38],0.264 µM
TTEANAGQF,IC50,[39]; [45],≥ 109 µM
same,IC50,[3]; [45],22 µM
same,Kd,[20]; [45],≥ 20 µM
same,Kd,[7]; [45],≥ 20 µM
same,Kd,[21]; [45],≥ 20 µM
same,Kd,[40],≥ 20 µM
same,Kd,[26]; [45],≥ 20 µM
same,Kd,[9]; [45],≥ 20 µM
same,Kd,[27]; [45],≥ 20 µM
same,Kd,[32]; [45],≥ 20 µM
same,Kd,[41],≥ 20 µM
same,Kd,[12],≥ 20 µM
same,Kd,[42],≥ 20 µM
same,Kd,[43],≥ 20 µM
same,Kd,[13]; [45],≥ 20 µM
same,Kd,[44],≥ 20 µM
same,Kd,[14],≥ 20 µM
same,Kd,[15],≥ 20 µM
same,Kd,[16]; [45],≥ 20 µM
same,Kd,[17]; [45],≥ 20 µM
YQVNNLEEI,IC50,[2]; [45],25.6 µM
same,IC50,[3]; [45],1.66 µM
same,IC50,[4]; [45],54.9 µM
YYATSYLEY,IC50,[39]; [49],≥ 110 µM
same,IC50,[3]; [49],0.676 µM
same,IC50,[4]; [49],≥ 244 µM
